First the molecules themselves.
B1: TRPC5: TRPC family member TRPC5, overexpressed from plasmid as comparison (protein, UniProt Q9UL62 1-973, looked up)
chain: MAQLYYKKVNYSPYRDRIPLQIVRAETELSAEEKAFLNAVEKGDYATVKQALQEAEIYYNVNINCMDPLGRSALLIAIENENLEIMELLLNHSVYVGDALLYAIRKEVVGAVELLLSYRRPSGEKQVPTLMMDTQFSEFTPDITPIMLAAHTNNYEIIKLLVQKRVTIPRPHQIRCNCVECVSSSEVDSLRHSRSRLNIYKALASPSLIALSSEDPILTAFRLGWELKELSKVENEFKAEYEELSQQCKLFAKDLLDQARSSRELEIILNHRDDHSEELDPQKYHDLAKLKVAIKYHQKEFVAQPNCQQLLATLWYDGFPGWRRKHWVVKLLTCMTIGFLFPMLSIAYLISPRSNLGLFIKKPFIKFICHTASYLTFLFMLLLASQHIVRTDLHVQGPPPTVVEWMILPWVLGFIWGEIKEMWDGGFTEYIHDWWNLMDFAMNSLYLATISLKIVAYVKYNGSRPREEWEMWHPTLIAEALFAISNILSSLRLISLFTANSHLGPLQISLGRMLLDILKFLFIYCLVLLAFANGLNQLYFYYETRAIDEPNNCKGIRCEKQNNAFSTLFETLQSLFWSVFGLLNLYVTNVKARHEFTEFVGATMFGTYNVISLVVLLNMLIAMMNNSYQLIADHADIEWKFARTKLWMSYFDEGGTLPPPFNIIPSPKSFLYLGNWFNNTFCPKRDPDGRRRRRNLRSFTERNADSLIQNQHYQEVIRNLVKRYVAAMIRNSKTHEGLTEENFKELKQDISSFRYEVLDLLGNRKHPRSFSTSSTELSQRDDNNDGSGGARAKSKSVSFNLGCKKKTCHGPPLIRTMPRSSGAQGKSKAESSSKRSFMGPSLKKLGLLFSKFNGHMSEPSSEPMYTISDGIVQQHCMWQDIRYSQMEKGKAEACSQSEINLSEVELGEVQGAAQSSECPLACSSSLHCASSICSSNSKLLDSSEDVFETWGEACDLLMHKWGDGQEEQVTTRL
modifications: full-length
notes: TRPC family member TRPC5, overexpressed from plasmid as comparison
B2: 389/930aa: TRPC6 fragment 389~930aa expressed from plasmid (protein, UniProt Q9Y210 389-930, looked up, fragment)
chain: SIWYENLSGLRQQTMAVKFLVVLAVAIGLPFLALIYWFAPCSKMGKIMRGPFMKFVAHAASFTIFLGLLVMNAADRFEGTKLLPNETSTDNAKQLFRMKTSCFSWMEMLIISWVIGMIWAECKEIWTQGPKEYLFELWNMLDFGMLAIFAASFIARFMAFWHASKAQSIIDANDTLKDLTKVTLGDNVKYYNLARIKWDPSDPQIISEGLYAIAVVLSFSRIAYILPANESFGPLQISLGRTVKDIFKFMVIFIMVFVAFMIGMFNLYSYYIGAKQNEAFTTVEESFKTLFWAIFGLSEVKSVVINYNHKFIENIGYVLYGVYNVTMVIVLLNMLIAMINSSFQEIEDDADVEWKFARAKLWFSYFEEGRTLPVPFNLVPSPKSLFYLLLKLKKWISELFQGHKKGFQEDAEMNKINEEKKLGILGSHEDLSKLSLDKKQVGHNKQPSIRSSEDFHLNSFNNPPRQYQKIMKRLIKRYVLQAQIDKESDEVNEGELKEIKQDISSLRYELLEEKSQNTEDLAELIRELGEKLSMEPNQEETN
B3: 437/633aa: TRPC6 fragment 437~633aa expressed from plasmid (protein, UniProt Q9Y210 437-633, looked up, fragment)
chain: RGPFMKFVAHAASFTIFLGLLVMNAADRFEGTKLLPNETSTDNAKQLFRMKTSCFSWMEMLIISWVIGMIWAECKEIWTQGPKEYLFELWNMLDFGMLAIFAASFIARFMAFWHASKAQSIIDANDTLKDLTKVTLGDNVKYYNLARIKWDPSDPQIISEGLYAIAVVLSFSRIAYILPANESFGPLQISLGRTVKD
B4: 389/510aa: TRPC6 fragment 389~510aa expressed from plasmid (protein, UniProt Q9Y210 389-510, looked up, fragment)
chain: SIWYENLSGLRQQTMAVKFLVVLAVAIGLPFLALIYWFAPCSKMGKIMRGPFMKFVAHAASFTIFLGLLVMNAADRFEGTKLLPNETSTDNAKQLFRMKTSCFSWMEMLIISWVIGMIWAEC
B5: 1/405aa: TRPC6 fragment 1~405aa expressed from plasmid (protein, UniProt Q9Y210 1-405, looked up, fragment)
chain: MSQSPAFGPRRGSSPRGAAGAAARRNESQDYLLMDSELGEDGCPQAPLPCYGYYPCFRGSDNRLAHRRQTVLREKGRRLANRGPAYMFSDRSTSLSIEEERFLDAAEYGNIPVVRKMLEECHSLNVNCVDYMGQNALQLAVANEHLEITELLLKKENLSRVGDALLLAISKGYVRIVEAILSHPAFAEGKRLATSPSQSELQQDDFYAYDEDGTRFSHDVTPIILAAHCQEYEIVHTLLRKGARIERPHDYFCKCNDCNQKQKHDSFSHSRSRINAYKGLASPAYLSLSSEDPVMTALELSNELAVLANIEKEFKNDYKKLSMQCKDFVVGLLDLCRNTEEVEAILNGDVETLQSGDHGRPNLSRLKLAIKYEVKKFVAHPNCQQQLLSIWYENLSGLRQQTMAV
B6: 508/633aa: TRPC6 fragment 508~633aa expressed from plasmid (protein, UniProt Q9Y210 508-633, looked up, fragment)
chain: AECKEIWTQGPKEYLFELWNMLDFGMLAIFAASFIARFMAFWHASKAQSIIDANDTLKDLTKVTLGDNVKYYNLARIKWDPSDPQIISEGLYAIAVVLSFSRIAYILPANESFGPLQISLGRTVKD
B7: 725/930aa: TRPC6 fragment 725~930aa expressed from plasmid (protein, UniProt Q9Y210 725-930, looked up, fragment)
chain: AMINSSFQEIEDDADVEWKFARAKLWFSYFEEGRTLPVPFNLVPSPKSLFYLLLKLKKWISELFQGHKKGFQEDAEMNKINEEKKLGILGSHEDLSKLSLDKKQVGHNKQPSIRSSEDFHLNSFNNPPRQYQKIMKRLIKRYVLQAQIDKESDEVNEGELKEIKQDISSLRYELLEEKSQNTEDLAELIRELGEKLSMEPNQEETN

One assay deals with Aβ levels in HEK293APP stable cells. The assay is described as follows: Aβ ELISA, HEK293APP stable cells treated with TAT fusion peptides. The settings on record: Table 8; HEK293APP stable cells; TAT = 1. Format: cell-based. The protocol: (§1) Upon collecting the culture medium of the cells, Aβ40 and Aβ42 levels were quantified with sandwich ELISA kit, respectively (purchased from Invitrogen). The forebrain of the mouse was dissected and separated, and then homogenized with GuHCL. After that, total Aβ was determined by ELISA. For determining TBST(Tris-Buffered Saline and 1% TritonX100, 1% SDS, 1% DOC) soluble and insoluble Aβ, upon TBST homogenation and centrifugation of the forebrain of the mouse, the supernatant was determined for TBST soluble Aβ by ELISA, and the precipitate was determined for TBST insoluble Aβ by ELISA upon another GuHCL homogenate.
In this Example, the second transmembrane domain (487-507aa, TM2) was selected to fuse with cell penetrating peptide TAT and the fusion peptide TAT-TM2 and the mutant thereof TAT-TM2mut were obtained. Their effects on Aβ levels were examined in HEK293APP stable cells.
6.1.2 The Effect of Different Doses of Fusion Protein TAT-TM2 on Aβ Levels in HEK293APP Stable Cells were Determined.
To search for shorter fragments which could inhibit Aβ levels, TM2 was divided into N- and C-terminals and fused with TAT respectively. The effects of TAT-TM2-N, TAT-TM2-C and TAT-TM2-C mutant on Aβ levels in HEK293APP cells was examined.
Turning to “TAT-TM2-mut: mutated TAT-TM2 peptide, SEQ ID NO.:22, TSCFSWMEMLIISDDIGMDDAGRKKRRQRRRC (fusion protein)”, the Aβ40 came to 0.89 ± 0.07 and the Aβ42 amounted to 0.93 ± 0.09.

The assay is the same for the next values; noted with them: Table 9; TAT-TM2 variants, HEK293APP cells; TAT = 1.
The molecule “TAT-TM2-C-m1: TAT-TM2-C mutant, SEQ ID NO.:25, DDSWVIGMIWAGRKKRRQRRRC (fusion protein)” had an Aβ40 of 0.54 ± 0.01 and an Aβ42 of 0.33 ± 0.07.
For “TAT-TM2-C-m2: TAT-TM2-C mutant, SEQ ID NO.:26, IISDDIGMIWAGRKKRRQRRRC (fusion protein)”, in that order: 1.09 ± 0.10 and 1.04 ± 0.15.
The matching figures for “TAT-TM2-C-m3: TAT-TM2-C mutant, SEQ ID NO.:27, IISWVIGMDDAGRKKRRQRRRC (fusion protein)”: 1.07 ± 0.11 and 1.07 ± 0.13.
For “TAT-TM2-C: C-terminal of TM2 fused with TAT, SEQ ID NO.:24, IISWVIGMIWAGRKKRRQRRRC (fusion protein)”, in that order: 0.71 ± 0.07 and 0.72 ± 0.03.
“TAT-TM2-N: N-terminal of TM2 fused with TAT, SEQ ID NO.:23, TSCFSWMEMLGRKKRRQRRRC (fusion protein)” gave an Aβ40 of 0.97 ± 0.04 and an Aβ42 of 0.97 ± 0.04.

The test system is the same in another assay. The assay is described as follows: Aβ ELISA of culture medium, HEK293APP stable cells transfected with TRPC plasmids. The assay is classed as cell-based. Conditions: Table 1; HEK293APP stable cell, 1 ug plasmid, medium ELISA after 48 hr; empty vector = 1. The protocol: as §1
HEK293APP stable cell line was cultured in DMEM culture solution (containing 200 ng/ml G418) with 10% FBS. C0S7C99 cells were cultured in MEM/F12 culture solution (containing 0.4 ug/ml hygromycin B) with 5% FBS, 1% NEAA, and 200 mM Glutamax. All the transfection was conducted by using Lipofectamin 2000 (Invitrogen).
HEK293 cells were inoculated to 60 mm dishes. When the density was close to 80%, 4 ug APP plasmid was transfected with Lipofectamine 2000. After 4 h, the culture medium was replaced and 400 ng/ml of G418 was added. Cells were passage 2 days later and G418 in the culture was maintained at 400 ng/ml. After 2-3 weeks, the cells not transected died gradually, and the survived cells were HEK293 cells expressing APP. Then, G418 was reduced to and maintained at 200 ng/ml.
TRPC6 or TRPC5 was overexpressed in HEK293APP stable cell lines respectively (Cells were passaged into 12-well plates till the densities were close to 80%. Each well was transfected with 1 ug plasmid using Lipofectamine 2000, and the Aβ levels in the medium were determined with ELISA after 48 hr).
Afterwards, HEK293APP stable cells were passaged in 12-well plate till the density approached 80%. Each well was transfected with lug plasmid using Lipofectamine 2000, and the Aβ levels in the culture medium were determined with ELISA after 48 h. The targeting fragment was primarily narrowed down to 437-507aa.
The […] of TRPC6 contains the first transmembrane regions(TM1), the first extracellular loop (Loop1), and the second transmembrane regions (TM2). To further narrow down the active domain, we constructed 3 variant plasmids, with TM2 region replacement by TM1 region (C6-mut1), reversal of TM2 sequence (C6-mut2) or point mutations within TM2 region(C6-mut3). Then HEK293APP stable cells were passaged in 12-well plate. When the density was close to 80%, every well was transfected with lug plasmid using Lipofectamine 2000, and the Aβ levels in the medium were determined with ELISA after 48 h. The active fragment was further narrowed down to 487-507aa.
In turn, B1 came in with an Aβ40 of 0.9900 ± 0.02548 and an Aβ42 of 0.9488 ± 0.02053.

Staying with this assay, now noted: Table 4; TRPC6 fragments, HEK293APP stable cells, 48 h; empty vector = 1.
In turn, B2 registered an Aβ40 of 0.7699 ± 0.07728 and an Aβ42 of 0.7217 ± 0.0695.
B3 showed an Aβ40 of 0.8146 ± 0.07986 and an Aβ42 of 0.7096 ± 0.09708.
The matching figures for B4: 0.5959 ± 0.08036 and 0.6131 ± 0.1299.
Consider B5, for which the Aβ40 turned out to be 0.9674 ± 0.06376 and the Aβ42 was determined as 0.9822 ± 0.03662.
B6: the Aβ40 is given as 1.016 ± 0.04396 and the Aβ42 is on record as 1.042 ± 0.02037.
For B7, in that order: 1.007 ± 0.07289 and 0.9822 ± 0.0099.

Values taken from patent US9790551B2, “Use of TRPC6 mRNA levels in peripheral blood cells for early detection/diagnosis of senile dementia” (Aging Wise Biotechnology, Inc., priority 2013, dated 2017).
